The target in one data set is T1, ParA (wild type) (Myxococcus xanthus DK1622, UniProt Q1CVJ3 1-283).
T1 construct: ParA of Myxococcus xanthus DK1622, translation product of ORF MXAN_7477; No tag cleavage step is described; also called His6-ParA; wild-type ParA; source: E. coli Rosetta(DE3)pLysS, purified (HisTrap HP, HiTrap Q HP)
T1 sequence (looked up): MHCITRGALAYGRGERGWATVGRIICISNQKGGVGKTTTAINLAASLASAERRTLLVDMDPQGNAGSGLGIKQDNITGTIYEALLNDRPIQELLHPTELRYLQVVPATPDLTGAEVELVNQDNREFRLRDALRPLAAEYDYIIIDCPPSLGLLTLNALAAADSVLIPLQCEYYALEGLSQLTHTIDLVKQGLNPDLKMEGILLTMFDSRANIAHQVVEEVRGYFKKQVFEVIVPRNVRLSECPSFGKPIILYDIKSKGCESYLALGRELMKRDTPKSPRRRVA
In words: HDX-MS; 50 µM ParA or ParA-D60A with 1 mM ATP, with or without 1 mM ParB_(1-20) and/or 1 mg/mL salmon sperm DNA; 25 °C (Datasets 1 and 2). Conditions: both partners purified.

The next data set addresses T2, His6-ParA_(21-274)-D60A (Myxococcus xanthus DK1622, UniProt Q1CVJ3 21-274, D60A).
T2 construct: For NMR the protein was 2H/13C/15N-labelled; source: E. coli Rosetta(DE3)pLysS, purified (as His6-ParA)
T2 sequence (looked up): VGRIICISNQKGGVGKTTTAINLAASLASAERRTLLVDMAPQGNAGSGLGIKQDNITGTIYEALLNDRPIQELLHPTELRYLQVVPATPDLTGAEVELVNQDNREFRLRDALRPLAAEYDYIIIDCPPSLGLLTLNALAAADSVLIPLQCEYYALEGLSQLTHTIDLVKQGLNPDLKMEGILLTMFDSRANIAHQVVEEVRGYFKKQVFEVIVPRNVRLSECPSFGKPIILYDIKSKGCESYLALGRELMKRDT
Kind of data set: NMR titration; 2H/13C/15N-labelled ParA_(21-274)-D60A (300 µM) titrated with unlabelled ParB_(1-20) to 1:5.8; TROSY 1H-15N HSQC, 298 K, 50 mM HEPES pH 6.8, 150 mM KCl, 5 mM MgSO4, 1 mM DTT, 1 mM ATP. Conditions: both partners purified.

Data set [1] concerns the molecule itself. Kind of data set: HDX-MS; 50 µM ParA or ParA-D60A with 1 mM ATP, with or without 1 mM ParB_(1-20) and/or 1 mg/mL salmon sperm DNA; 25 °C (Datasets 1 and 2).

Residue numbers refer to the chain shown, from its start.

B1: ParB_(1-20) peptide (peptide, UniProt Q1CVJ4 1-20, looked up)
peptide: MVKADMQKRALGRGLSALIP
notes: also called N-terminal peptide of ParB; source: synthetic peptide
On to B1, for which the binding result with ParA (wild type) and in the data set with His6-ParA_(21-274)-D60A was “binds” each time.

B2: ParA-D60A (natural protein, Myxococcus xanthus DK1622, UniProt Q1CVJ3 1-283, looked up)
chain: T1 sequence (looked up) with D60A
notes: ParA of Myxococcus xanthus DK1622 lacking the catalytic aspartic acid D60; also called ATPase-deficient ParA variant; source: E. coli Rosetta(DE3)pLysS, purified (as His6-ParA)
On to B2, for which the binding result in data set [1] was “binds”.

The record behind these values is PMC12462528, “Molecular basis of ParA ATPase activation by the CTPase ParB during bacterial chromosome segregation” (Nature Communications, 2025).
